Data reported in patent publication US20240374644A1.

Target: CD8 on peripheral blood mononuclear cells (human)
Assay: flow cytometry on PBMCs, anti-GST antibody

CD8 on peripheral blood mononuclear cells (human), sequence (P01732 22-235, chain 1 of 2): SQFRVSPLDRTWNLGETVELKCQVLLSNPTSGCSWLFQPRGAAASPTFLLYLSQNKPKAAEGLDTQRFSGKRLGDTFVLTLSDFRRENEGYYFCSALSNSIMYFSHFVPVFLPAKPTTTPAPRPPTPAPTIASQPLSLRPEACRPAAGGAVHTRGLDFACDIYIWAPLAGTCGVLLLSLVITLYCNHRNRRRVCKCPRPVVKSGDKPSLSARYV
CD8 on peripheral blood mononuclear cells (human), sequence (P10966 22-210, chain 2 of 2, further chain): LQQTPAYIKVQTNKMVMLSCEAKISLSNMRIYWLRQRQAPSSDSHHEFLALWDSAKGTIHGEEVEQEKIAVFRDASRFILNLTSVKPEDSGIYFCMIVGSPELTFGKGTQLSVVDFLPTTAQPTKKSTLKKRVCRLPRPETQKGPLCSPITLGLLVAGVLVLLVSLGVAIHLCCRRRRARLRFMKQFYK

CD8 BiTE (K8Bi), anti-HERV-K 6H5 scFv linked to anti-CD8 (OKT8) scFv (bispecific antibody)
percentage of peripheral blood mononuclear cells positive (anti-GST): 48.8 to 55.2%
